The results in this text go back to patent US20040072301A1 (VAN ANDEL RESEARCH INSTITUTE, published 2004).

Assay [1] deals with T1, Arp2/3 complex from NIH 3T3 cell lysates (UniProt P61161 1-394; Q99JY9 2-418; Q9WV32 1-372; Q9CVB6 1-300; Q9JM76 2-178; P59999 …). Kind of assay: GST pull-down from NIH 3T3 cell extracts, immunoblot. As for the experimental part: (§1) Recombinant protein purification, in vitro GST-‘pull downs’ and two-hybrid assays. Two-hybrid assays and in vitro translation/GST-pull downs were conducted as previously described (Tominaga et al., supra; Sahai, E. et al., Embo J 17, 1350-61 (1998)). […] Beads were rinsed three times with PBS 1×supplemented with 0.1 μg/μl of BSA and were analyzed by SDS-PAGE and immunoblotted with purified antibodies recognising either Arp3, p34, or actin. For pull-downs from cell extracts, NIH 3T3 cells were lysed and extracted as per (Machesky, L. M. et al., Curr Biol 8, 1347-56 (1998)), and incubated with purified GST-fusion proteins bound to glutathione beads before extensive washing, separation by SDS-PAGE, transfer, and immunoblotting.
After incubation, the complexes were washed extensively and the resulting protein complexes were separated by SDS-PAGE, transferred to membranes, and analyzed by Western blots using antibodies directed to actin, Arp3 and p34 Arc (Welch, M. D. et al., Nature 385, 265-9 (1997)).
(Immunoblotting shows a protein as a band on a membrane.)

Assay [2] has as its target T2, mDia2 DAD (amino acids 1031-1171), yeast two-hybrid Gal4 fusion (mouse, UniProt Q9Z207 1031-1171).
T2 construct: Two-hybrid construct; also called DRF-autoregulatory domain; Dia-autoregulatory domain
Put plainly: yeast two-hybrid, HIS reporter growth on 3-aminotriazole. As for the experimental part:
Yeast reporter strain HF7c was transformed with the indicated ‘bait’ (Trp⁻) and ‘prey’ (Leu⁻) plasmids before restreaking on selective plates (His) with increasing concentrations 3-aminotriazole (0, 2, 4, 8, 16, 32, and 64 mM) that selects for correlating expression of the HIS-reporter gene. The indicated numbers correspond to the highest concentration of 3-AT on which there was growth after 3 days. […] The mDia2 plasmid encodes amino acids 47-800.
(§2) Two-hybrid assays and in vitro translation/GST-pull downs were conducted as previously described (Kikyo et al., supra; Hill, C. S. et al., supra). In short, the indicated ‘bait’ proteins were generated by subcloning the indicated cDNAs into pGBT9 Gal4 DNA binding domain plasmid; ‘prey’ were Gal4 activation domain fusion proteins generated in either pGAD 10 or pSE1107. HF7c (Clontech) reporter yeast strain were co-transformed with the indicated plasmids and selected on appropriate plates for bait and prey auxotrophic markers, then restreaked onto His-plate to select for Gal4 regulated HIS reporter expression. Levels of reporter activity were monitored by replicate streaking onto Trp/Leu/His-plates with increasing concentrations (0-64 mM) of 3-aminotriazole.

For assay [3], the target named is T1, Arp2/3 complex from NIH 3T3 cell lysates. Put plainly: GST pull-down from NIH 3T3 cell lysates, immunoblot with anti-p34 Arc. As for the experimental part: 15 μg of the indicated fusion protein was indubated with lysates as in FIGS. 7a-7c. Bound material was detected after extensive washing and immunoblotting with anti-p34 Arc.
as §1

In assay [4] the target is mDia2 (amino acids 47-800), yeast two-hybrid Gal4 fusion (mouse, UniProt Q9Z207 47-800). Kind of assay: yeast two-hybrid. As for the experimental part: as §2
The mutants were tested for binding by two-hybrid analysis and were then expressed in cells.

mDia2 (amino acids 47-800), yeast two-hybrid Gal4 fusion, sequence (Q9Z207 47-800 limits assumed): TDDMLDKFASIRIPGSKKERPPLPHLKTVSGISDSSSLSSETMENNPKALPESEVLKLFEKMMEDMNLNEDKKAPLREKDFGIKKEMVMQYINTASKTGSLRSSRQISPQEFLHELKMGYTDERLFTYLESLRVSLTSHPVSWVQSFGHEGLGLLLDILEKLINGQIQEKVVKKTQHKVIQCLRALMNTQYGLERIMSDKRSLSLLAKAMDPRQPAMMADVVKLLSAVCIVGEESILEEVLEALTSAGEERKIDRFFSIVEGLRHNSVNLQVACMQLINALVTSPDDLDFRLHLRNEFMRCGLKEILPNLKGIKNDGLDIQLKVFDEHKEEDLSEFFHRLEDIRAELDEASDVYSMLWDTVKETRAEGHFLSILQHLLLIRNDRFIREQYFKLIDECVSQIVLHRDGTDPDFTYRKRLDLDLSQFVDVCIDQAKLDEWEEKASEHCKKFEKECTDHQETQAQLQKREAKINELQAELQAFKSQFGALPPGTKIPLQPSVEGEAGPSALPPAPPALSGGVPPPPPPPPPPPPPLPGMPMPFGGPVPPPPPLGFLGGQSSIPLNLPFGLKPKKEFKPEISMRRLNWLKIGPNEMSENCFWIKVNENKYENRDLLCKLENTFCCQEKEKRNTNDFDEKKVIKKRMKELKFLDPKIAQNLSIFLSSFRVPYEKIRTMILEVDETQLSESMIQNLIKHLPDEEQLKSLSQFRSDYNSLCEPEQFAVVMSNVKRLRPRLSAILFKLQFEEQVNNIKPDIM

B1: GST fusion of mDia2 FH2 (amino acids 801-910) (other)
chain: AVSTACEEIKKSKGFSKLLELVLLMGNYMNAGSRNAQTFGFDLSSLCKLKDTKSADQKTTLLHFLVDVCEEKHADILHFVDDLAHLDKASRVSVEMLEKNVKQMGRQLQQ
notes: not shown: glutathione-S-transferase tag of pGEX-KG
Turning to B1, the binding result in assay [1] is “no binding”.

B2: mDia2 FH2 (amino acids 801-910), yeast two-hybrid Gal4 fusion (other, not shown: small tags and cut ends)
chain: AVSTACEEIKKSKGFSKLLELVLLMGNYMNAGSRNAQTFGFDLSSLCKLKDTKSADQKTTLLHFLVDVCEEKHADILHFVDDLAHLDKASRVSVEMLEKNVKQMGRQLQQ
B2: in assay [2], the binding result is recorded as “no binding”.

B3: mDia2 FH1 (amino acids 521-630), yeast two-hybrid Gal4 fusion (other, not shown: small tags and cut ends)
chain: AELQAFKSQFGALPPGTKIPLQPSVEGEAGPSALPPAPPALSGGVPPPPPPPPPPPPPLPGMPMPFGGPVPPPPPLGFLGGQSSIPLNLPFGLKPKKEFKPEISMRRLNW
Take B3: the binding result in assay [2] is “no binding”.

B4: GST fusion of mDia2 FH1 (amino acids 521-630) (other)
chain: AELQAFKSQFGALPPGTKIPLQPSVEGEAGPSALPPAPPALSGGVPPPPPPPPPPPPPLPGMPMPFGGPVPPPPPLGFLGGQSSIPLNLPFGLKPKKEFKPEISMRRLNW
notes: as for B1
On to B4, for which the binding result in assay [1] is reported as “no binding”.

B5: GST fusion of mDia2 GBD (amino acids 101-216) (other)
chain: VLKLFEKMMEDMNLNEDKKAPLREKDFGIKKEMVMQYINTASKTGSLRSSRQISPQEFLHELKMGYTDERLFTYLESLRVSLTSHPVSWVQSFGHEGLGLLLDILEKLINGQIQEK
notes: as for B1
Turning to B5, the binding result in assay [1] was “no binding”.

B6: GST-DAD K1059E/R1060E (other)
chain: MKTEGDETGVMDSLLEALQSGAAFRDRREETPKLKDIRQSLSPMSQRPVLKVCNHENQKMQLTEGSRPHHSINCNSTRTPVAKELNYNLDTHASTGRIKAVEKEACNAESNKKKEMELLGSVAKSESVPEVEALLARLRAL
notes: not shown: Glutathione-S-transferase carrier (pGEX-KG) and its linker at the N end
B6: the binding result in assay [3] is “no binding (tested: 15 ug fusion protein)”.

B7: mDia2 DAD M1041A, yeast two-hybrid Gal4 fusion (other, not shown: small tags and cut ends)
chain: MKTEGDETGVADSLLEALQSGAAFRDRRKRTPKLKDIRQSLSPMSQRPVLKVCNHENQKMQLTEGSRPHHSINCNSTRTPVAKELNYNLDTHASTGRIKAVEKEACNAESNKKKEMELLGSVAKSESVPEVEALLARLRAL
Take B7: the binding result in assay [4] is recorded as “no binding”.

B8: mDia2 DAD L1048A, yeast two-hybrid Gal4 fusion (other, not shown: small tags and cut ends)
chain: MKTEGDETGVMDSLLEAAQSGAAFRDRRKRTPKLKDIRQSLSPMSQRPVLKVCNHENQKMQLTEGSRPHHSINCNSTRTPVAKELNYNLDTHASTGRIKAVEKEACNAESNKKKEMELLGSVAKSESVPEVEALLARLRAL
For the molecule B8, the binding result in assay [4] is listed as “no binding”.

B9: GST-DAD R1057E/R1058E (other)
chain: MKTEGDETGVMDSLLEALQSGAAFRDEEKRTPKLKDIRQSLSPMSQRPVLKVCNHENQKMQLTEGSRPHHSINCNSTRTPVAKELNYNLDTHASTGRIKAVEKEACNAESNKKKEMELLGSVAKSESVPEVEALLARLRAL
notes: as for B6
Take B9: the binding result in assay [3] is recorded as “no binding (tested: 15 ug fusion protein)”.

B10: mDia2 DAD L1044A, yeast two-hybrid Gal4 fusion (other, not shown: small tags and cut ends)
chain: MKTEGDETGVMDSALEALQSGAAFRDRRKRTPKLKDIRQSLSPMSQRPVLKVCNHENQKMQLTEGSRPHHSINCNSTRTPVAKELNYNLDTHASTGRIKAVEKEACNAESNKKKEMELLGSVAKSESVPEVEALLARLRAL
Take B10: the binding result in assay [4] is reported as “no binding”.
